Test [1] concerns the target T1, human TREM2 (human, UniProt Q9NZC2 19-174, limits assumed).
T1 sequence: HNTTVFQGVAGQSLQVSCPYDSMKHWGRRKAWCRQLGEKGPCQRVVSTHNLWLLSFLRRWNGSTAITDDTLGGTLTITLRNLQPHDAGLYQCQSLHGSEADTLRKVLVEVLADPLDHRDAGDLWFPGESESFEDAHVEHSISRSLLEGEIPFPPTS
In words: yeast-displayed Fab FACS, 1st screen 110 nM.

For test [2], the target named is T1, human TREM2. In words: yeast-displayed Fab FACS, 2nd screen 100 nM.

Data on 18 molecules can be found in US20220204611A1 (Amgen, published 2022).

B1: V19 (Fab, V domains shown)
VH: EVQLVQSGAEVKKPGESLKISCKGSGYSFTSSWIAWVRQMPGKGLEWMGIIYPGDSDTRYSPSFQGQVTISADKSISTAYLQWSSLKASDTAMYFCARQRTFYYDSSDYFDYWGQGTLVTVSS
VL: DIQMTQSPSSVSASVGDRVTITCRASQGISSWLAWYQQKPGKAPKLLIYAASSLQNGVPSRFSGSGSGTDFTLTISSLQPEDFATYFCQQADSFPRTFGQGTKLEIK
On to B1, for which the “binding signal fold over 6E7 parental” value is 0.59 fold in test [1] and 0.48 fold in test [2].

B2: V23 (Fab, V domains shown)
VH: EVQLVQSGAEVKKPGESLKISCKGSGYSFTSYWIAWVRQMPGKGLEWMGIIYPGDSDTRYSPSFQGQVTISADKSISTAYLQWSSLKASDTAMYFCARQRTFYYDSSDYFDYWGQGTLVTVSS
VL: DIQMTQSPSSVSASVGDRVTITCRASQGISSWLAWYQQKPGKAPKLLIYAASSLQNGVPSRFSGSGSGTDFTLTISSLQPEDFATYFCQQADSFPLTFGQGTKLEIK
On to B2, for which the “binding signal fold over 6E7 parental” value in test [1] and in test [2] was 0.4 fold in each case.

B3: V46 (Fab, V domains shown)
VH: EVQLVQSGAEVKKPGESLKISCKGSGYSFTSYWIAWVRQMPGKGLEWMGIIYPGDSDTRYSPSFQGQVTISADKSISTAYLQWSSLKASDTAMYFCARQRTFYYDSSDYFDYWGQGTLVTVSS
VL: DIQMTQSPSSVSASVGDRVTITCRASQGISSWLAWYQQKPGKAPKLLIYAASTLQNGVPSRFSGSGSGTDFTLTISSLQPEDFATYFCQQADSFPRTFGQGTKLEIK
Consider B3, for which the “binding signal fold over 6E7 parental” value in test [1] amounted to 0.83 fold; in test [2] it was 0.96 fold.

B4: V43 (Fab, V domains shown)
VH: EVQLVQSGAEVKKPGESLKISCKGSGYSFTSYWIAWVRQMPGKGLEWMGIIYPGDSGTRYSPSFQGQVTISADKSISTAYLQWSSLKASDTAMYFCARQRTFYYDSSDYFDYWGQGTLVTVSS
VL: DIQMTQSPSSVSASVGDRVTITCRASQGISSWLAWYQQKPGKAPKLLIYAASSLQNGVPSRFSGSGSGTDFTLTISSLQPEDFATYFCQQADSFPRTFGQGTKLEIK
For B4, the “binding signal fold over 6E7 parental” value was determined as 0.2 fold in test [1] and 0.33 fold in test [2].

B5: V35 (Fab, V domains shown)
VH: EVQLVQSGAEVKKPGESLKISCKGSGYSFTSYWIAWVRQMPGKGLEWMGIIYPGDSDTRYSPSFQGQVTISADKSISTAYLQWSSLKASDTAMYFCARQRTFYYDSSDYFDYWGQGTLVTVSS
VL: DIQMTQSPSSVSASVGDRVTITCRASQGISSWLAWYQQKPGKAPKLLIYAASSLQNGVPSRFSGSGSGTDFTLTISSLQPEDFATYFCQQAYSFPRTFGQGTKLEIK
B5: the “binding signal fold over 6E7 parental” value came to 0.21 fold in test [1] and 0.29 fold in test [2].

B6: V33 (Fab, V domains shown)
VH: EVQLVQSGAEVKKPGESLKISCKGSGYSFTSYWIAWVRQMPGKGLEWMGIIYPGDSDTRYSPSFQGQVTISADKSISTAYLQWSSLKASDTAMYFCARQRTFYGDSSDYFDYWGQGTLVTVSS
VL: DIQMTQSPSSVSASVGDRVTITCRASQGISSWLAWYQQKPGKAPKLLIYAASSLQNGVPSRFSGSGSGTDFTLTISSLQPEDFATYFCQQADSFPRTFGQGTKLEIK
In the case of B6, the figures for the “binding signal fold over 6E7 parental” value in test [1] and in test [2] were 0.23 fold and 0.34 fold, respectively.

B7: V20 (Fab, V domains shown)
VH: EVQLVQSGAEVKKPGESLKISCKGSGYSFTSYWIAWVRQMPGKGLEWMGRIYPGDSDTRYSPSFQGQVTISADKSISTAYLQWSSLKASDTAMYFCARQRTFYYDSSDYFDYWGQGTLVTVSS
VL: DIQMTQSPSSVSASVGDRVTITCRASQGISSWLAWYQQKPGKAPKLLIYAASSLQNGVPSRFSGSGSGTDFTLTISSLQPEDFATYFCQQADSFPRTFGQGTKLEIK
Consider B7, for which the “binding signal fold over 6E7 parental” value in test [1] came to 0.18 fold; in test [2], 0.52 fold.

B8: V34 (Fab, V domains shown)
VH: EVQLVQSGAEVKKPGESLKISCKGSGYSFTSYWIAWVRQMPGKGLEWMGIIYPGDSDTRYSPSFQGQVTISADKSISTAYLQWSSLKASDTAMYFCARQRTFYYDSSDYFDYWGQGTLVTVSS
VL: DIQMTQSPSSVSASVGDRVTITCRASQGISSWLAWYQQKPGKAPKLLIYAASSLQDGVPSRFSGSGSGTDFTLTISSLQPEDFATYFCQQADSFPRTFGQGTKLEIK
Consider B8, for which the “binding signal fold over 6E7 parental” value in test [1] stood at 0.34 fold; in test [2] it was 1.02 fold.

B9: V21 (Fab, V domains shown)
VH: EVQLVQSGAEVKKPGESLKISCKGSGYSFTSYWIAWVRQMPGKGLEWMGIIYPGDSDTRYSPSFQGQVTISADKSISTAYLQWSSLKASDTAMYFCARQRTFYYDSSDFFDYWGQGTLVTVSS
VL: DIQMTQSPSSVSASVGDRVTITCRASQGISSWLAWYQQKPGKAPKLLIYAASSLQNGVPSRFSGSGSGTDFTLTISSLQPEDFATYFCQQADSFPRTFGQGTKLEIK
As for B9, the figures for the “binding signal fold over 6E7 parental” value in test [1] and in test [2] were 0.76 fold and 0.68 fold, respectively.

B10: V47 (Fab, V domains shown)
VH: EVQLVQSGAEVKKPGESLKISCKGSGYSFTSYWIAWVRQMPGKGLEWMGIIYPGDSDTRYSPSFQGQVTISADKSISTAYLQWSSLKASDTAMYFCARQRTFYYDSSDYFDYWGQGTLVTVSS
VL: DIQMTQSPSSVSASVGDRVTITCRASQGISSWLAWYQQKPGKAPKLLIYAASSLQNGVPSRFSGSGSGTDFTLTISSLQPEDFATYFCQQADSFPMTFGQGTKLEIK
Turning to B10, the “binding signal fold over 6E7 parental” value came out at 0.42 fold in test [1] and 0.47 fold in test [2].

B11: V45 (Fab, V domains shown)
VH: EVQLVQSGAEVKKPGESLKISCKGSGYSFTSYWIAWVRQMPGKGLEWMGIIYPGDSDTRYSPSFQGQVTISADKSISTAYLQWSSLKASDTAMYFCARQRTFYYDSSDYFDYWGQGTLVTVSS
VL: DIQMTQSPSSVSASVGDRVTITCRASQGISSFLAWYQQKPGKAPKLLIYAASSLQNGVPSRFSGSGSGTDFTLTISSLQPEDFATYFCQQADSFPRTFGQGTKLEIK
Consider B11, for which the figures for the “binding signal fold over 6E7 parental” value in test [1] and in test [2] were 0.43 fold and 0.53 fold, respectively.

B12: V54 (Fab, V domains shown)
VH: EVQLVQSGAEVKKPGESLKISCKGSGYSFTSQWIAWVRQMPGKGLEWMGIIYPGDSDTRYSPSFQGQVTISADKSISTAYLQWSSLKASDTAMYFCARQRTFYYDSSDYFDYWGQGTLVTVSS
VL: DIQMTQSPSSVSASVGDRVTITCRASQGISSWLAWYQQKPGKAPKLLIYAASSLQNGVPSRFSGSGSGTDFTLTISSLQPEDFATYFCQQADSFPRTFGQGTKLEIK
Take B12: the results for the “binding signal fold over 6E7 parental” value in test [1] and in test [2] were 0.55 fold and 0.54 fold, respectively.

B13: V32 (Fab, V domains shown)
VH: EVQLVQSGAEVKKPGESLKISCKGSGYSFTSYWIAWVRQMPGKGLEWMGIIYPGDSDTRYSNSFQGQVTISADKSISTAYLQWSSLKASDTAMYFCARQRTFYYDSSDYFDYWGQGTLVTVSS
VL: DIQMTQSPSSVSASVGDRVTITCRASQGISSWLAWYQQKPGKAPKLLIYAASSLQNGVPSRFSGSGSGTDFTLTISSLQPEDFATYFCQQADSFPRTFGQGTKLEIK
For the molecule B13, the “binding signal fold over 6E7 parental” value in test [1] was 0.82 fold; in test [2], 0.89 fold.

B14: V31 (Fab, V domains shown)
VH: EVQLVQSGAEVKKPGESLKISCKGSGYSFTSYWIAWVRQMPGKGLEWMGIIYPGDSETRYSPSFQGQVTISADKSISTAYLQWSSLKASDTAMYFCARQRTFYYDSSDYFDYWGQGTLVTVSS
VL: DIQMTQSPSSVSASVGDRVTITCRASQGISSWLAWYQQKPGKAPKLLIYAASSLQNGVPSRFSGSGSGTDFTLTISSLQPEDFATYFCQQADSFPRTFGQGTKLEIK
In the case of B14, the “binding signal fold over 6E7 parental” value amounted to 0.61 fold in test [1] and 0.73 fold in test [2].

B15: V22 (Fab, V domains shown)
VH: EVQLVQSGAEVKKPGESLKISCKGSGYSFTSYWIAWVRQMPGKGLEWMGIIYPGDSDTRYSPSFQGQVTISADKSISTAYLQWSSLKASDTAMYFCARQRTFYYDSSDYFDYWGQGTLVTVSS
VL: DIQMTQSPSSVSASVGDRVTITCRASQGISSWLAWYQQKPGKAPKLLIYRASSLQNGVPSRFSGSGSGTDFTLTISSLQPEDFATYFCQQADSFPRTFGQGTKLEIK
On to B15, for which the results for the “binding signal fold over 6E7 parental” value in test [1] and in test [2] were 0.3 fold and 0.71 fold, respectively.

B16: V30 (Fab, V domains shown)
VH: EVQLVQSGAEVKKPGESLKISCKGSGSSFTSYWIAWVRQMPGKGLEWMGIIYPGDSDTRYSPSFQGQVTISADKSISTAYLQWSSLKASDTAMYFCARQRTFYYDSSDYFDYWGQGTLVTVSS
VL: DIQMTQSPSSVSASVGDRVTITCRASQGISSWLAWYQQKPGKAPKLLIYAASSLQNGVPSRFSGSGSGTDFTLTISSLQPEDFATYFCQQADSFPRTFGQGTKLEIK
Turning to B16, the “binding signal fold over 6E7 parental” value is 0.79 fold in test [1] and 0.72 fold in test [2].

B17: V44 (Fab, V domains shown)
VH: EVQLVQSGAEVKKPGESLKISCKGSGYSFTSYWIAWVRQMPGKGLEWMGIIYPSDSDTRYSPSFQGQVTISADKSISTAYLQWSSLKASDTAMYFCARQRTFYYDSSDYFDYWGQGTLVTVSS
VL: DIQMTQSPSSVSASVGDRVTITCRASQGISSWLAWYQQKPGKAPKLLIYAASSLQNGVPSRFSGSGSGTDFTLTISSLQPEDFATYFCQQADSFPRTFGQGTKLEIK
B17: the figures for the “binding signal fold over 6E7 parental” value in test [1] and in test [2] were 0.65 fold and 0.52 fold, respectively.

B18: V42 (Fab, V domains shown)
VH: EVQLVQSGAEVKKPGESLKISCKGSGYSFTSAWIAWVRQMPGKGLEWMGIIYPGDSDTRYSPSFQGQVTISADKSISTAYLQWSSLKASDTAMYFCARQRTFYYDSSDYFDYWGQGTLVTVSS
VL: DIQMTQSPSSVSASVGDRVTITCRASQGISSWLAWYQQKPGKAPKLLIYAASSLQNGVPSRFSGSGSGTDFTLTISSLQPEDFATYFCQQADSFPRTFGQGTKLEIK
With B18, the “binding signal fold over 6E7 parental” value in test [1] is 0.45 fold; in test [2], 0.41 fold.
